Source: paper PMC6983136

System: NC(=O)N[C@H]1NC(=O)NC1=O
Assay: purified protein
Details: free enzyme, 70 nM monomer, 20 mM potassium phosphate, pH 7.4, 37 °C, racemic allantoin added, table states (S)-allantoin, unclear whether concentration counts racemate or S form

With “puuE (allantoinase from Pseudomonas fluorescens) (Pseudomonas fluorescens Pf0-1)” the Km was 1350 ± 430 µM, the kcat was 102 s⁻¹ and the kcat/Km was 75200 M⁻¹ s⁻¹.
